Test system: MS2 coat protein
Experiment: apparent KD of MS2 coat protein; designed switch direction (-1 OFF switch, 1 ON switch): 1; higher = weaker reporter binding
Outline: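 Three titration conditions were used: no input, 200 uM small-molecule ligand, and an oligonucleotide input. In each, SNAP-549-labelled MS2 coat protein was raised from 0.7 or 1.5 nM, doubling, to 3 µM over designed RNA switches transcribed on Illumina chips by stalled E. coli RNA polymerase. Curve fits of normalised cluster fluorescence gave values whose per-design median over clusters is the apparent KD.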

[1] = input ligand: microRNA oligo, concentration not stated
[2] = Eterna round: R95, input ligand: FMN 200 uM
[3] = Eterna round: R95, input ligand: microRNA oligo, concentration not stated
[4] = Eterna round: R95, input ligand: none

GCGGACCUGACAUGAGGAUCACCCAUGUUGCGGAGACGCAAUGAGGAUAUCGAUGGGUUUCCCGUCGAGAAGGCAUAAAUCCGC [JL SSNG3 3.93 mod 3] (Eterna round: R96, puzzle: Same State NG 3)
apparent KD of MS2 coat protein (input ligand: FMN 200 uM): 15.1 nM | apparent KD of MS2 coat protein [1]: 16 nM | apparent KD of MS2 coat protein (input ligand: none): 25.2 nM

GAGAGAGGGUGAGGAUAUUCAGUAAUAAUGAUAGAAGAAGGCACAGACAUGAGGAUCACCCAUGUGGGAAUAAUCCAGAGAGAG [Parity 3 - Jieux - Same State NG 1] (Eterna round: R96, puzzle: Same State NG 1)
apparent KD of MS2 coat protein [1]: 158 nM

UGGAGACAUCAAGGAUAUGCUACCGUUUCGGUAGCAGAAGGUGAUCACAUGAGGAUCACCCAUGUAUGCAUGCGUGAGCGUGCU [JL SSNG1 3.53] (Eterna round: R96, puzzle: Same State NG 1)
apparent KD of MS2 coat protein (input ligand: FMN 200 uM): 779 nM | apparent KD of MS2 coat protein [1]: 32.7 nM | apparent KD of MS2 coat protein (input ligand: none): 35.4 nM

AAAAUGGCAUGUUACAUGAGGAUCACCCAUGUGCCGUCAACUGAGGAUAUGGUGCUGUAGAAGAAUCAGAAGGUAGUCAUUUAA [AK SSNG3-V2-27] (Eterna round: R96, puzzle: Same State NG 3)
apparent KD of MS2 coat protein (input ligand: FMN 200 uM): 22.6 nM | apparent KD of MS2 coat protein [1]: 15.8 nM | apparent KD of MS2 coat protein (input ligand: none): 27 nM

UUUAGUAGCGGGCAGGAUAUGUAUUAAAAUACAUGAGGAUCACCCAUGUGCGGGUAUAACACCCGACAGAAGGGCCAAUCGCUAC [Laonerce - 8] (puzzle: Same State 2)
apparent KD of MS2 coat protein [2]: 22.3 nM | apparent KD of MS2 coat protein [3]: 162 nM | apparent KD of MS2 coat protein [4]: 237 nM

ACAAGCUUUUCUGUAGUGAAAGGUGGGAUACAUGAGGAUCACCCAUGUAUUGUUGUCAAUAUUUGUCCUCGUCUUAU [JR_SHM208A_Sub086] (puzzle: Sensor for hsa-mir-208a)
apparent KD of MS2 coat protein [2]: 31.4 nM | apparent KD of MS2 coat protein [3]: 11 nM | apparent KD of MS2 coat protein [4]: 31.1 nM

CUGAGCAAUCGAGGAUAUCACGUCGAUUAGACGUGAGAAGGCGAUCAUAACAUGAGGAUCACCCAUGUAUUACAUGAAGCUCAG [SSNG1/4-A2] (Eterna round: R96, puzzle: Same State NG 1)
apparent KD of MS2 coat protein (input ligand: FMN 200 uM): 15.3 nM | apparent KD of MS2 coat protein [1]: 12.9 nM | apparent KD of MS2 coat protein (input ligand: none): 20.3 nM

AUUUUUAAUGCAGGAUAUGAUUAACAUGAGGAUCACCCAUGUGGUGUUGUGAGUAAGGAGAGUGAUCAGAAGGGCAUUUCUUUU [JMF's solution 82] (Eterna round: R96, puzzle: Same State NG 2)
apparent KD of MS2 coat protein (input ligand: FMN 200 uM): 593 nM | apparent KD of MS2 coat protein [1]: 337 nM | apparent KD of MS2 coat protein (input ligand: none): 540 nM

UGACACACGGCAGGAUAUCCUUAGCAAAGCUAAGGAGAAGGGCCUCAUGUCGUGGAAACGUGACAUGAGGAUCACCCAUGUUGC [Omei SS(NG)1 Cv7] (Eterna round: R96, puzzle: Same State NG 1)
apparent KD of MS2 coat protein (input ligand: FMN 200 uM): 154 nM | apparent KD of MS2 coat protein [1]: 18.1 nM | apparent KD of MS2 coat protein (input ligand: none): 85 nM

UUAAUGAAGUAAGGAUAUACAUGAGGAUCACUCGUAGAAGGUACUAAACAUGAGGAUCACCCAUGUACCGGUCCGUAGACUGGA [JL SSNG1 1.01] (Eterna round: R96, puzzle: Same State NG 1)
apparent KD of MS2 coat protein (input ligand: FMN 200 uM): 472 nM | apparent KD of MS2 coat protein [1]: 157 nM | apparent KD of MS2 coat protein (input ligand: none): 572 nM

AAAAUACAUGAGGAUCACCCAUGUAGAAACUACACAGGAUAUCGGACGGCUGUAGCCGAACGAGAAGGGUGAACCC [Uszadi] (puzzle: Same State 1)
apparent KD of MS2 coat protein [2]: 205 nM | apparent KD of MS2 coat protein [3]: 228 nM | apparent KD of MS2 coat protein [4]: 313 nM

UCGAGCGUACUUGCAGACAUGAGGAUCACCCAUGUAAAUGGGAAGGAUAUGGUACCGUUUCGGUACCAGAAGGUCCUAGGUGCU [salish99_SSNG3_r04_306] (Eterna round: R96, puzzle: Same State NG 3)
apparent KD of MS2 coat protein (input ligand: FMN 200 uM): 250 nM | apparent KD of MS2 coat protein [1]: 327 nM | apparent KD of MS2 coat protein (input ligand: none): 1290 nM

CGACUAAAGUCACAGGAUAUACGCCGUACUACAUGAGGAUCACCCAUGUUCGGGACAGUCGCGGUGUAGAAGGGUGUGGGUCAAC [Errabeed] (puzzle: Same State 2)
apparent KD of MS2 coat protein [2]: 17.6 nM | apparent KD of MS2 coat protein [3]: 31.2 nM | apparent KD of MS2 coat protein [4]: 38.9 nM

GGAAUAUGAUGUUACAUGAGGAUCACCCAUGUAGUAAUAACUAAGGAUAUCUGAAAAGGAGGAGAAGAGAAGGUAGGAUCAUAA [AK SSNG3-V2-10.1] (Eterna round: R96, puzzle: Same State NG 3)
apparent KD of MS2 coat protein (input ligand: FMN 200 uM): 13.3 nM | apparent KD of MS2 coat protein [1]: 22.5 nM | apparent KD of MS2 coat protein (input ligand: none): 33.3 nM

GGAUGAUAGACAGGAUAUUGAUUGUAAUUAUGUCAAGAAGGGUCUUUGAUUUAAACGACCAGUUACAUGAGGAUCACCCAUGUU [JR_SSNG1_Sub029] (Eterna round: R96, puzzle: Same State NG 1)
apparent KD of MS2 coat protein [1]: 24.1 nM

GCUACCAAAGAAGCCAACAUGAGGAUCACCCAUGUAUGUUGGUAGGAUAUCGUUUGCAAAGCAAACGAGAAGGGCUAAGGUAGC [Mat - Same State NG 3 - JL Mod - D77] (Eterna round: R96, puzzle: Same State NG 3)
apparent KD of MS2 coat protein (input ligand: FMN 200 uM): 138 nM | apparent KD of MS2 coat protein [1]: 99.2 nM | apparent KD of MS2 coat protein (input ligand: none): 107 nM

UUAAUGAUGUAAGGAUAUACAUGAGGAUUUCUCGUAGAAGGUACAAGACAUGAGGAUCACCCAUGUAUCGCUCCGUAGAGCGUA [JL SSNG1 1.10] (Eterna round: R96, puzzle: Same State NG 1)
apparent KD of MS2 coat protein (input ligand: FMN 200 uM): 652 nM | apparent KD of MS2 coat protein [1]: 101 nM | apparent KD of MS2 coat protein (input ligand: none): 287 nM

ACAAGACAUGAGGAUCACCCAUGUAUAAAUUACACAGGAUAUCGGUGGGCCGCGCCUACACGAGAAGGGUGACUUC [Gere] (puzzle: Same State 1)
apparent KD of MS2 coat protein [2]: 77 nM | apparent KD of MS2 coat protein [3]: 33.4 nM | apparent KD of MS2 coat protein [4]: 35.5 nM

UCUUGGUUUUUGCUCGUUUUUUGUGUUGAACAUGAGGAUCACCCAUGUAUUGUACAAUCCAAUUUAAUAAUGGUCCA [Mod of one of JR's submissions 3] (puzzle: Sensor for hsa-mir-208a)
apparent KD of MS2 coat protein [2]: 44.2 nM | apparent KD of MS2 coat protein [3]: 42.2 nM | apparent KD of MS2 coat protein [4]: 47.8 nM

AGAUGUUAAUUAGGAUAUGGUCACAUGAGGAUCACCCAUGUAACGAUGAUACGAUGUGGUCAAGACUAGAAGGGAUCGCUAACA [SameState NG2 #72] (Eterna round: R96, puzzle: Same State NG 2)
apparent KD of MS2 coat protein (input ligand: FMN 200 uM): 204 nM | apparent KD of MS2 coat protein [1]: 86.4 nM | apparent KD of MS2 coat protein (input ligand: none): 155 nM

GUGGUCAGACAUGAGGAUCACCCAUGUGGAAUAAAUAACGUACAGGAUAUUGAAUAUAGGAUAUACAAGAAGGGUAGAUUGGUG (Eterna round: R96, puzzle: Same State NG 3)
apparent KD of MS2 coat protein (input ligand: FMN 200 uM): 167 nM | apparent KD of MS2 coat protein [1]: 115 nM | apparent KD of MS2 coat protein (input ligand: none): 127 nM

ACAUGAAAUGCAGGAUAUUUUGUACCUACAUGUGACAUGAGGAUCACCCAUGUGGUAAGUAUAAGAGAGAAGGGUAAGAUAUGU [Equivalence 3 - Jieux - Same State NG 2] (Eterna round: R96, puzzle: Same State NG 2)
apparent KD of MS2 coat protein (input ligand: FMN 200 uM): 60.6 nM | apparent KD of MS2 coat protein [1]: 48.3 nM | apparent KD of MS2 coat protein (input ligand: none): 72.3 nM

AACAUGAGGAUCACCCAUGUGAAAUACUGAGGCAGCUCAGGGAAGGAUAUGGUUGACACCCUCGACCAGAAGGUCCAAAAUAAA [Aquorxe] (Eterna round: R96, puzzle: Same State NG 3)
apparent KD of MS2 coat protein (input ligand: FMN 200 uM): 80.8 nM | apparent KD of MS2 coat protein [1]: 108 nM | apparent KD of MS2 coat protein (input ligand: none): 143 nM

GGUAGGUUACUACCAAACAUGAGGAUCACCCAUGUAAAUGGGAAGGAUAUGGUACCUAUUUGGUACCAGAAGGUCCAAUUAAUU [JL Fiskers NG3ss - 2 mod 2] (Eterna round: R96, puzzle: Same State NG 3)
apparent KD of MS2 coat protein (input ligand: FMN 200 uM): 670 nM | apparent KD of MS2 coat protein [1]: 1720 nM | apparent KD of MS2 coat protein (input ligand: none): 4550 nM

AUGCCAAAUGGAGGAUAUGGAGCCUUAUUGGCUCCAGAAGGUCAAACAUGAGGAUCACCCAUGUGGCAGUGGUCUAAUGACCAC [Eli NG1ss - 45] (Eterna round: R96, puzzle: Same State NG 1)
apparent KD of MS2 coat protein (input ligand: FMN 200 uM): 110 nM | apparent KD of MS2 coat protein [1]: 192 nM | apparent KD of MS2 coat protein (input ligand: none): 368 nM

ACUGCAAUUAACGCCUACAUGAGGAUCACCCAUGUAUGUAGGCAGGAUAUCGUUUGCUUUGCAAACGAGAAGGGCUGUAGUAGC [salish99_SSNG3_R04_003] (Eterna round: R96, puzzle: Same State NG 3)
apparent KD of MS2 coat protein (input ligand: FMN 200 uM): 59.1 nM | apparent KD of MS2 coat protein [1]: 59.4 nM | apparent KD of MS2 coat protein (input ligand: none): 64.1 nM

UGUUGUAUUACAGGAUAUCUAUUAAUUUUAUUUAGAGAAGGGUAUUCACAUGAGGAUCACCCAUGUAUAUACGAGGAAGUUGUG [JMF's solution 13] (Eterna round: R96, puzzle: Same State NG 1)
apparent KD of MS2 coat protein [1]: 38.7 nM

CCGUAGAUGGGACAGGAUAUGACUGUCGUCACAUGAGGAUCACCCAUGUCCCGGCAAUGCCACCGUUAGAAGGGUCCCGUCUCGG [Tiquiser] (puzzle: Same State 2)
apparent KD of MS2 coat protein [3]: 12.2 nM

GCUGGCAUGCAAGGAUAUCCUUCCGAGUAGGAAGGAGAAGGUGCUUGUGGGACAUGAGGAUCACCCAUGUAUGUUGGCCACGAC [Inrala] (Eterna round: R96, puzzle: Same State NG 1)
apparent KD of MS2 coat protein [1]: 82.1 nM

GCUCUACAUGAGGAUCACCCAUGUCCAUCCGCACGAGGAUAUGCAUGGGCGAAAGCUGGUGCAGAAGGCGUGGGAC [Tr3Pin] (puzzle: Same State 1)
apparent KD of MS2 coat protein [3]: 409 nM

GCUAGAAUAAACGCCUACAUGAGGAUCACCCAUGUAUGUAGGCAGGAUAUCGUAUGCAAAGCAUACGAGAAGGGCCUUACUAGC [Mat - Same State NG 3 - JL Mod - D33] (Eterna round: R96, puzzle: Same State NG 3)
apparent KD of MS2 coat protein (input ligand: FMN 200 uM): 25.7 nM | apparent KD of MS2 coat protein [1]: 27.7 nM | apparent KD of MS2 coat protein (input ligand: none): 43.4 nM

AGUCCAGCCUGAGCUGGACGAAAGCAUGUACAUGAGGAUCACCCAUGUCAUGUACAAGCUUUUUGCUCGUCUUAAAA [Zipper 46 - 4] (puzzle: Sensor for hsa-mir-208a)
apparent KD of MS2 coat protein [2]: 482 nM | apparent KD of MS2 coat protein [3]: 15 nM | apparent KD of MS2 coat protein [4]: 532 nM
